According to IntAct's records for PubMed 21134644:

B1: Integrin beta-3 (Homo sapiens), P05106 (parent)
chain: MRARPRPRPLWATVLALGALAGVGVGGPNICTTRGVSSCQQCLAVSPMCAWCSDEALPLGSPRCDLKENLLKDNCAPESIEFPVSEARVLEDRPLSDKGSGDSSQVTQVSPQRIALRLRPDDSKNFSIQVRQVEDYPVDIYYLMDLSYSMKDDLWSIQNLGTKLATQMRKLTSNLRIGFGAFVDKPVSPYMYISPPEALENPCYDMKTTCLPMFGYKHVLTLTDQVTRFNEEVKKQSVSRNRDAPEGGFDAIMQATVCDEKIGWRNDASHLLVFTTDAKTHIALDGRLAGIVQPNDGQCHVGSDNHYSASTTMDYPSLGLMTEKLSQKNINLIFAVTENVVNLYQNYSELIPGTTVGVLSMDSSNVLQLIVDAYGKIRSKVELEVRDLPEELSLSFNATCLNNEVIPGLKSCMGLKIGDTVSFSIEAKVRGCPQEKEKSFTIKPVGFKDSLIVQVTFDCDCACQAQAEPNSHRCNNGNGTFECGVCRCGPGWLGSQCECSEEDYRPSQQDECSPREGQPVCSQRGECLCGQCVCHSSDFGKITGKYCECDDFSCVRYKGEMCSGHGQCSCGDCLCDSDWTGYYCNCTTRTDTCMSSNGLLCSGRGKCECGSCVCIQPGSYGDTCEKCPTCPDACTFKKECVECKKFDRGALHDENTCNRYCRDEIESVKELKDTGKDAVNCTYKNEDDCVVRFQYYEDSSGKSILYVVEEPECPKGPDILVVLLSVMGAILLIGLAALLIWKLLITIHDRKEFAKFEEERARAKWDTANNPLYKEATSTFTNITYRGT

Variants of: B1
Conditions: with tln1_mouse Tln1, P26039
tln1_mouse Tln1, P26039, sequence (P26039 whole entry): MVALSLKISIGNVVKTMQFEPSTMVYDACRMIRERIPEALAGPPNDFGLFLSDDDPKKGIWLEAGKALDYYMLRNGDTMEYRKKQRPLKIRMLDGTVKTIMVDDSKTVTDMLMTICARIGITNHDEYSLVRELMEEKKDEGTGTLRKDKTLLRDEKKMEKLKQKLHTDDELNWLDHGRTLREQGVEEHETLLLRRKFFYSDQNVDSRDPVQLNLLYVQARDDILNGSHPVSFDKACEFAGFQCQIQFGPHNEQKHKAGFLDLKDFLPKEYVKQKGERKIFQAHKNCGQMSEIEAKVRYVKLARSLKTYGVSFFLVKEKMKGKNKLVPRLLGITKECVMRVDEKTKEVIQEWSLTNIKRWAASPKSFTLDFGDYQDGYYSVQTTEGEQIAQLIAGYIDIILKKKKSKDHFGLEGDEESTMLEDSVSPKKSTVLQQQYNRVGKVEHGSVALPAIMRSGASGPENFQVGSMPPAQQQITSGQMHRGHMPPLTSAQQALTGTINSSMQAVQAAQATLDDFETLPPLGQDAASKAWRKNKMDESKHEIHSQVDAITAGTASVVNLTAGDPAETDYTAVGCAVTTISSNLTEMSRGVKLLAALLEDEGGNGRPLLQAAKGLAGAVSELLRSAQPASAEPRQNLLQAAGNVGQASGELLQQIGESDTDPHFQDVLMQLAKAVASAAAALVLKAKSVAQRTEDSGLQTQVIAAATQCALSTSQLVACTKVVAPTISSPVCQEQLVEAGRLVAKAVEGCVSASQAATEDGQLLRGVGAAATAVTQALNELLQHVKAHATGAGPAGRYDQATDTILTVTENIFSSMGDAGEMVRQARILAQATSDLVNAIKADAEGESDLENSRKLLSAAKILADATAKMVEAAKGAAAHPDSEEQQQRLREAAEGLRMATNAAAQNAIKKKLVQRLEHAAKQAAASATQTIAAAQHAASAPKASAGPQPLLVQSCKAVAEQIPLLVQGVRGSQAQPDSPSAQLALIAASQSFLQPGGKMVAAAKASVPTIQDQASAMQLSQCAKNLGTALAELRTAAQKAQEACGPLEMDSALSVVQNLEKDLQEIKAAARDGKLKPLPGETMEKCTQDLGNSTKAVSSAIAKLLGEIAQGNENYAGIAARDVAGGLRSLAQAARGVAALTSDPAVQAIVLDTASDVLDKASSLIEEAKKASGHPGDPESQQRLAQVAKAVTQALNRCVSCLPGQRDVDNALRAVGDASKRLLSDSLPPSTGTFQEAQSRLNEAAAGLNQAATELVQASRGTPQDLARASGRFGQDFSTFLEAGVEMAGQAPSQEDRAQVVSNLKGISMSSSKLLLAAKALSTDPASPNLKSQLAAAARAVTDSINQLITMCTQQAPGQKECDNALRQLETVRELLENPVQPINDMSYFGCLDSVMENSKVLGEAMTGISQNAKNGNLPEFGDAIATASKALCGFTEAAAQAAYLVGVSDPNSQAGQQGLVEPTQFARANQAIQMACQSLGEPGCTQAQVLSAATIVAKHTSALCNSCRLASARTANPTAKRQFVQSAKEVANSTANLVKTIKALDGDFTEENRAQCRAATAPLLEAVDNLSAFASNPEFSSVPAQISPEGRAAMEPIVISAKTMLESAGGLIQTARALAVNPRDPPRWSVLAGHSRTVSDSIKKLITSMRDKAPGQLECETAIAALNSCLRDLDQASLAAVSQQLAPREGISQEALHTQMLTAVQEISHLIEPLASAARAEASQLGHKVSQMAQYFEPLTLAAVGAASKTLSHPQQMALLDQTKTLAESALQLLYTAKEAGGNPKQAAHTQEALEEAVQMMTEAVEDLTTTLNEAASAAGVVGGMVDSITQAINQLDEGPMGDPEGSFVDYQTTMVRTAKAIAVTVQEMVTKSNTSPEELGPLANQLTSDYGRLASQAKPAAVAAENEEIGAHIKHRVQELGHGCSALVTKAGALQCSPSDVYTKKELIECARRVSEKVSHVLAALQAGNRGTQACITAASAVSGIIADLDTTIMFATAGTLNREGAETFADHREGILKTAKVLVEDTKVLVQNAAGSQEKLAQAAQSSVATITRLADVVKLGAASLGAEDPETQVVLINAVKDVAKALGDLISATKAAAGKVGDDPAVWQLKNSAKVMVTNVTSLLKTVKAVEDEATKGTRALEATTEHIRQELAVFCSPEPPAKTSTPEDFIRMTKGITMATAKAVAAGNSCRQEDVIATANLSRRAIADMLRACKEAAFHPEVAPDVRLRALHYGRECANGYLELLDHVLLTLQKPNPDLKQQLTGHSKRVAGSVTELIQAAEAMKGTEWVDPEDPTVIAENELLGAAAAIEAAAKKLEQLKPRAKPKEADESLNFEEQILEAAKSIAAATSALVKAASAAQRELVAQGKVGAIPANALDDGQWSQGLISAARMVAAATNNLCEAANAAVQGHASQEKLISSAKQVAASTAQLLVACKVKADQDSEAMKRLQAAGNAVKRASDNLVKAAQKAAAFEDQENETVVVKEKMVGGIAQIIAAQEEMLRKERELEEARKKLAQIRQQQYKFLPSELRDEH

effect of a mutation on the interaction | Variant
disrupting interaction | W765A
decreasing interaction | F753A;F756A
decreasing interaction | Y773A
